Assay results taken from the supplement of paper PMC10065799, “High-throughput profiling of sequence recognition by tyrosine kinases and SH2 domains using bacterial peptide display” (eLife, 2023).

biological target: FGFR1 (UniProt P11362); experiment: phosphorylation enrichment, bacterial display (enrichment ratio); higher = better substrate or ligand; peptides without Tyr show the background
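Note: 11-residue human phosphosite peptides and single-mutation variants displayed on the E. coli surface, counted by deep sequencing, each peptide's frequency after selection divided by its frequency in the unselected input library; frequency after pTyr selection over input frequency; kinase dosed for 20-30% of maximal phosphorylation in three min.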

FGFR1, sequence (P11362 whole entry, looked up): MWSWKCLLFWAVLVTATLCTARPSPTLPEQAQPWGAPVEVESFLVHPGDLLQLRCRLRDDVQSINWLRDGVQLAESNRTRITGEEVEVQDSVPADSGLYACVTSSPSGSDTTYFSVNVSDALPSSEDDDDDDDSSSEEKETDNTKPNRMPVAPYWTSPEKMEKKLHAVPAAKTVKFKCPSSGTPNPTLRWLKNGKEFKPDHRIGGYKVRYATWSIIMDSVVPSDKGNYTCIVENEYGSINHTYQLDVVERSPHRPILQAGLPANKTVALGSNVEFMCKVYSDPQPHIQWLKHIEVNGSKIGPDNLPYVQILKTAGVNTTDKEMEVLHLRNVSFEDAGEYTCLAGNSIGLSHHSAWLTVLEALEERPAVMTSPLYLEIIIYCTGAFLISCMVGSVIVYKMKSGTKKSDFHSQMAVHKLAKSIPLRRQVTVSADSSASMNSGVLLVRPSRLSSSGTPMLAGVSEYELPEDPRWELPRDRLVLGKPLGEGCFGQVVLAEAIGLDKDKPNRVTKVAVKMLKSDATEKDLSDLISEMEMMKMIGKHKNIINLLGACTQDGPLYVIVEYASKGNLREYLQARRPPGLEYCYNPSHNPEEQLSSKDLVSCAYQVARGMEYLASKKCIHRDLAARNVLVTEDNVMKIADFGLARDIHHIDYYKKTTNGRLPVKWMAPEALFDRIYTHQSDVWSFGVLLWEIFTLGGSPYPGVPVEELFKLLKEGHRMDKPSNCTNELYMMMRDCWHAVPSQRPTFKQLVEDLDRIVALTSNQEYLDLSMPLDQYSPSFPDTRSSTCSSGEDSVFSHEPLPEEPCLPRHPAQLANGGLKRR

Sequence	phosphorylation enrichment
RWQQLYDTLNA [EIF3M_Y351_Q346R]	0.574
EFNLMYDGAKE [IRF6_Y97_T100A]	0.652
WGTAEYDSVVA [MAP1A_Y1883]	0.583
KMATAYIRSMS [BCO1_Y264_R267S]	0.397
SLDLSYFPTSS [EMD_Y181_YF]	0.59
RLNWIYYKDQT [RS1_Y165]	0.643
PGQAAYQKVVA [HBB_Y131_V127G]	0.373
SPLTDYSPQLQ [OTC_Y345_L341P]	0.522
RRGTGYTLPLP [MAGEC3_Y152_S155P]	0.651
GHLFAYDWISI [BEST1_Y227_YF]	2.76
AGIVVYNIIGW [MYH7_Y588_D587V]	0.506
TDLAFYLVRKG [ASL_Y376_YF]	0.497
PAGSGYPAYLG [ATP6V1A_Y374_D371G]	1.17
CNTIHYNYMCN [TP53_Y234_T230N]	0.586
FEEVVYQAMEE [TACC3_Y684]	0.621
GVRLYYRVMES [RB1_Y454]	0.535
CGADSYEMEED [EGFR_Y316]	0.536

Sequence	phosphorylation enrichment
IYETDYYRKGG [INSR_Y1189]	0.479
EIIPFYGMSSF [FNDC3B_Y175_T179S_YF]	0.497
LICRRYLVMQR [IL3RA_Y328_V323L]	0.926
NDTAGYFIIGG [SEL1L3_Y399]	1.77
TWSPKYTLRSH [STRN3_Y474_N471S]	0.353
CTTLHYNFMCN [TP53_Y234_I232L_YF]	0.567
GRQGIYTENER [GPR143_Y231]	0.464
MFRVQYNSSVD [LRFN1_Y458_Q455R_YF]	0.439
NVVQEYERVII [NPHS2_Y131_K126N]	0.59
DGFTDYAEFAK [MCFD2_Y138_I136T_YF]	0.654
VSYGEYRYRSV [CFTR_Y515_D513G]	0.505
SGASGYSATST [CERT1_Y143]	0.478
LPVHFYGHVEH [PYGM_Y204]	1.54
LLQAEYWHDPI [PPT1_Y185_V181L]	4.99
AMGPVYQAAAL [HYOU1_Y421_A419P]	0.502
PVFEVYPLLNC [GATA1_Y78_Q76E]	2.54

biological target: Fyn (UniProt P06241); experiment: as above
Sequence (P06241 whole entry, looked up): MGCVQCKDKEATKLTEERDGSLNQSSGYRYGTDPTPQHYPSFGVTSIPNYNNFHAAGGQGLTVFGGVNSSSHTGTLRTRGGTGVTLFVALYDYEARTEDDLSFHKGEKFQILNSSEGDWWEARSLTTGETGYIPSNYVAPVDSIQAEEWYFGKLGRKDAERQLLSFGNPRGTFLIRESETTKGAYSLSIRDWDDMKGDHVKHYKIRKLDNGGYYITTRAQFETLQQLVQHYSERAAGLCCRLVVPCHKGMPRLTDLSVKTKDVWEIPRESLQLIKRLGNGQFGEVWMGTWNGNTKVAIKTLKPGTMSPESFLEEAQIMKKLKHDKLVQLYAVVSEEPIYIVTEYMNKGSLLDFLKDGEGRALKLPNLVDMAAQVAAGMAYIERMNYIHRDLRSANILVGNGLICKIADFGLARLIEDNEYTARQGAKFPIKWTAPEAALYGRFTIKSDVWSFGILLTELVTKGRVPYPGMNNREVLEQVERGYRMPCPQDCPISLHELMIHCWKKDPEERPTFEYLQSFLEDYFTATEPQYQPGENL

Sequence	phosphorylation enrichment
RWQQLYDTLNA [EIF3M_Y351_Q346R]	5.67
EFNLMYDGAKE [IRF6_Y97_T100A]	0.594
WGTAEYDSVVA [MAP1A_Y1883]	0.66
KMATAYIRSMS [BCO1_Y264_R267S]	0.417
SLDLSYFPTSS [EMD_Y181_YF]	0.496
RLNWIYYKDQT [RS1_Y165]	0.687
PGQAAYQKVVA [HBB_Y131_V127G]	0.478
SPLTDYSPQLQ [OTC_Y345_L341P]	0.403
RRGTGYTLPLP [MAGEC3_Y152_S155P]	0.642
GHLFAYDWISI [BEST1_Y227_YF]	0.894
AGIVVYNIIGW [MYH7_Y588_D587V]	2.31
TDLAFYLVRKG [ASL_Y376_YF]	0.545
PAGSGYPAYLG [ATP6V1A_Y374_D371G]	0.574
CNTIHYNYMCN [TP53_Y234_T230N]	0.413
FEEVVYQAMEE [TACC3_Y684]	2.12
GVRLYYRVMES [RB1_Y454]	0.438
CGADSYEMEED [EGFR_Y316]	0.534

Sequence	phosphorylation enrichment
IYETDYYRKGG [INSR_Y1189]	1.14
EIIPFYGMSSF [FNDC3B_Y175_T179S_YF]	1.06
LICRRYLVMQR [IL3RA_Y328_V323L]	0.564
NDTAGYFIIGG [SEL1L3_Y399]	0.582
TWSPKYTLRSH [STRN3_Y474_N471S]	0.445
CTTLHYNFMCN [TP53_Y234_I232L_YF]	0.391
GRQGIYTENER [GPR143_Y231]	0.511
MFRVQYNSSVD [LRFN1_Y458_Q455R_YF]	0.424
NVVQEYERVII [NPHS2_Y131_K126N]	0.47
DGFTDYAEFAK [MCFD2_Y138_I136T_YF]	0.974
VSYGEYRYRSV [CFTR_Y515_D513G]	5.66
SGASGYSATST [CERT1_Y143]	0.491
LPVHFYGHVEH [PYGM_Y204]	1.58
LLQAEYWHDPI [PPT1_Y185_V181L]	0.975
AMGPVYQAAAL [HYOU1_Y421_A419P]	5.43
PVFEVYPLLNC [GATA1_Y78_Q76E]	0.418

tested on: AncSZ; experiment: as above

Sequence	phosphorylation enrichment
RWQQLYDTLNA [EIF3M_Y351_Q346R]	1.32
EFNLMYDGAKE [IRF6_Y97_T100A]	1.35
WGTAEYDSVVA [MAP1A_Y1883]	1.4
KMATAYIRSMS [BCO1_Y264_R267S]	0.564
SLDLSYFPTSS [EMD_Y181_YF]	0.879
RLNWIYYKDQT [RS1_Y165]	1.53
PGQAAYQKVVA [HBB_Y131_V127G]	0.68
SPLTDYSPQLQ [OTC_Y345_L341P]	0.749
RRGTGYTLPLP [MAGEC3_Y152_S155P]	0.971
GHLFAYDWISI [BEST1_Y227_YF]	1.25
AGIVVYNIIGW [MYH7_Y588_D587V]	1.14
TDLAFYLVRKG [ASL_Y376_YF]	1.4
PAGSGYPAYLG [ATP6V1A_Y374_D371G]	0.782
CNTIHYNYMCN [TP53_Y234_T230N]	0.897
FEEVVYQAMEE [TACC3_Y684]	1.86
GVRLYYRVMES [RB1_Y454]	1.03
CGADSYEMEED [EGFR_Y316]	1.57

Sequence	phosphorylation enrichment
IYETDYYRKGG [INSR_Y1189]	1.05
EIIPFYGMSSF [FNDC3B_Y175_T179S_YF]	1.06
LICRRYLVMQR [IL3RA_Y328_V323L]	2.5
NDTAGYFIIGG [SEL1L3_Y399]	1.15
TWSPKYTLRSH [STRN3_Y474_N471S]	0.735
CTTLHYNFMCN [TP53_Y234_I232L_YF]	0.718
GRQGIYTENER [GPR143_Y231]	0.724
MFRVQYNSSVD [LRFN1_Y458_Q455R_YF]	0.769
NVVQEYERVII [NPHS2_Y131_K126N]	1.17
DGFTDYAEFAK [MCFD2_Y138_I136T_YF]	1.24
VSYGEYRYRSV [CFTR_Y515_D513G]	0.688
SGASGYSATST [CERT1_Y143]	0.594
LPVHFYGHVEH [PYGM_Y204]	1.68
LLQAEYWHDPI [PPT1_Y185_V181L]	1.89
AMGPVYQAAAL [HYOU1_Y421_A419P]	0.657
PVFEVYPLLNC [GATA1_Y78_Q76E]	1.64

biological target: Fes (UniProt P07332); experiment: as above
Sequence (P07332 whole entry, looked up): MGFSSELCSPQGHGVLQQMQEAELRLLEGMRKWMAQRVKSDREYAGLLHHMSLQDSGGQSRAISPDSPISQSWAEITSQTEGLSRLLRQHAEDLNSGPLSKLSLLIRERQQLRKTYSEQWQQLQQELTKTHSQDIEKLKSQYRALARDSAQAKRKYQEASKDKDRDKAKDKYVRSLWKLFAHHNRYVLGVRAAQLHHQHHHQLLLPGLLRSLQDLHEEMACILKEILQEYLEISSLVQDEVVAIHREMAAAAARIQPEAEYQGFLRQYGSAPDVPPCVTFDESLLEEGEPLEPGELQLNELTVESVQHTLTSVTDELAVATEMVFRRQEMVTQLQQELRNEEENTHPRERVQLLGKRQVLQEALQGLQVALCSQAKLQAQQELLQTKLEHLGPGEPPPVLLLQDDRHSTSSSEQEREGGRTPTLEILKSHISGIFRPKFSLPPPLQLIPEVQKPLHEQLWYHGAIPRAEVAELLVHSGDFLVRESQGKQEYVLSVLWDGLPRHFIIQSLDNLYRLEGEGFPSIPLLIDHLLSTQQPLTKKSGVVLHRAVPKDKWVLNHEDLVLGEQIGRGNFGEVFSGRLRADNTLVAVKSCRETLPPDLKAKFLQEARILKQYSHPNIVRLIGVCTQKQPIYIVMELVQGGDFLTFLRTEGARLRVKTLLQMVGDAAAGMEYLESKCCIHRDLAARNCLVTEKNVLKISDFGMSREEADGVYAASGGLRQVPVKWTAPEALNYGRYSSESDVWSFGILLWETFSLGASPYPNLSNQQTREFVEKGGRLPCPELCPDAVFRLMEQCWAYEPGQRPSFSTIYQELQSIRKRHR

Sequence	phosphorylation enrichment
RWQQLYDTLNA [EIF3M_Y351_Q346R]	1.45
EFNLMYDGAKE [IRF6_Y97_T100A]	1.29
WGTAEYDSVVA [MAP1A_Y1883]	1.24
KMATAYIRSMS [BCO1_Y264_R267S]	0.6
SLDLSYFPTSS [EMD_Y181_YF]	0.793
RLNWIYYKDQT [RS1_Y165]	2.66
PGQAAYQKVVA [HBB_Y131_V127G]	0.831
SPLTDYSPQLQ [OTC_Y345_L341P]	0.67
RRGTGYTLPLP [MAGEC3_Y152_S155P]	0.696
GHLFAYDWISI [BEST1_Y227_YF]	1.48
AGIVVYNIIGW [MYH7_Y588_D587V]	1.57
TDLAFYLVRKG [ASL_Y376_YF]	1.27
PAGSGYPAYLG [ATP6V1A_Y374_D371G]	0.752
CNTIHYNYMCN [TP53_Y234_T230N]	0.865
FEEVVYQAMEE [TACC3_Y684]	1.54
GVRLYYRVMES [RB1_Y454]	1.26
CGADSYEMEED [EGFR_Y316]	1.27

Sequence	phosphorylation enrichment
IYETDYYRKGG [INSR_Y1189]	0.885
EIIPFYGMSSF [FNDC3B_Y175_T179S_YF]	0.995
LICRRYLVMQR [IL3RA_Y328_V323L]	2.01
NDTAGYFIIGG [SEL1L3_Y399]	1.14
TWSPKYTLRSH [STRN3_Y474_N471S]	0.87
CTTLHYNFMCN [TP53_Y234_I232L_YF]	0.78
GRQGIYTENER [GPR143_Y231]	0.951
MFRVQYNSSVD [LRFN1_Y458_Q455R_YF]	0.931
NVVQEYERVII [NPHS2_Y131_K126N]	0.942
DGFTDYAEFAK [MCFD2_Y138_I136T_YF]	1.31
VSYGEYRYRSV [CFTR_Y515_D513G]	0.824
SGASGYSATST [CERT1_Y143]	0.594
LPVHFYGHVEH [PYGM_Y204]	1.74
LLQAEYWHDPI [PPT1_Y185_V181L]	1.96
AMGPVYQAAAL [HYOU1_Y421_A419P]	0.611
PVFEVYPLLNC [GATA1_Y78_Q76E]	1.86
